According to the Human Domainome abundance scans (Beltran et al. 2025):

B1: Endonuclease CUE2, residues 9 to 47; numbered along this chain, P36075 (parent)
chain: HESKLSILMDMFPAISKSKLQVHLLENNNDLDLTIGLLL

Variants of: B1
Assay: abundance fitness (aPCA) (normalised: wild type 0, dead -1); higher = more abundant; growth selection in yeast, the domain comes from the species named
Conditions: Saccharomyces cerevisiae (strain ATCC 204508 / S288c)

Abundance fitness: each site, then its substitutions
K17: A -0.156, I -0.387, V -0.196, G -0.255, Q 0.013, L -0.316, Y -0.077, T -0.263, S -0.129, W -0.471, H -0.085
G36: L -0.438, S 0.092, W -0.452, F -0.14, D 0.058, Q 0.004, T 0.021, Y -0.447, C -0.042, A 0.025, M -0.291, K 0.076, E 0.067, P -0.056, N -0.054, V -0.383
N29: S -0.065, F -0.059, A -0.086, C 0.052, T -0.402, V -0.262, M -0.008, H -0.117, W 0.039, K -0.364, Q 0.037, R -0.222, L -0.112, P -0.324, D -0.082
E26: C -0.331, T -0.113, R -0.045, V -0.257, S -0.131, N 0.381, K -0.086, Q -0.151, M -0.176, W -0.639, A 0.047, F -0.59, L -0.288, G -0.123, D -0.139
I35: F -0.75, W -0.483, L -0.165, S -0.153, G -0.596, C -0.114, H -0.371, A -0.04, R 0.07, N -0.532, T -0.053, M -0.065, K 0.07, V -0.067, Y -0.174, D -0.78, P -0.8
L31: W -0.694, R -0.841, M -0.211, C -0.388, V 0.136, G -0.913, E -0.633, I -0.064, K -0.752, N -0.881, P -1.01, Q -0.483, T -0.35, S -0.816, H -0.676
S18: P -0.214, V 0.154, K -0.03, T 0.015, W -0.178, M -0.11, F 0.056, L -0.103, R -0.038, Q 0.082, A -0.063, D -0.164
I15: M -0.078, F 0.163, P -1, G -0.735, K -0.142, V -0.115, W -0.023, L -0.08, T -0.115, S -0.214, D -0.293, Q -0.081, R -0.343, H 0.022, E -0.017
N28: Q -0.053, P -0.68, K 0.104, H -0.148, E 0.018, W -0.485, C -0.329, V -0.469, G 0.025, D 0.022, T -0.353, A -0.024, S 0.035, M -0.045, R -0.085
N27: V -0.415, E -0.134, M -0.191, Q -0.132, S -0.164, T -0.273, G -0.243, P -0.997, I -0.461, F -0.482, W -0.364, L -0.325, R -0.244, C -0.024, K -0.267
L37: A 0.055, E 0.001, H -0.034, D -0.049, G -0.014, C 0.06
T34: V 0.008, S -0.235, W -1.19, N -0.296, L -0.729, A -0.092, E -0.903, R -0.993, I -0.447, K -0.863, Q -0.899, G -0.632, D -0.88, P -0.943, C -0.091
